Test system: platelet adhesion to brain endothelium
Assay: Platelet and leukocyte immunohistochemistry after intrastriatal cytokine microinjection (rat)
Type: in vivo
Settings: versus vehicle, TNF at 24 h
Procedure: Rat-recombinant TNF and IL-1[…] were obtained from the National Institute for Biological Standards and Controls (NIBSC, Potters Bar, UK). Rat-recombinant LT-[…] and mouse-recombinant TNF was purchased from R&D Systems (Abingdon, UK). The cytokines were dissolved in endotoxin-free saline (vehicle). The cytokines contained a maximum of 100 IU endotoxin/mg cytokine (corresponding to 10 ppm by weight), which, in view of previous studies, was considered negligible in the context of these experiments.
12-week-old male Wistar rats or 8-week-old NMRI mice were used for the injection of the recombinant cytokines (Charles River, Margate, UK). Both rats and mice responded to the injection of cytokines in an identical manner. […]
Frozen, 10 μm-thick serial coronal sections were cut from tissue blocks. […] The numbers of positive cells present in the brain were quantitated. For each tissue section, 4 representative fields were chosen and the average number of positive cells was calculated and expressed as number of cells per mm^2.
The p55 mouse anti-rat platelet GPIIa monoclonal antibody was a kind gift from Kirin Brewery Co Ltd, Takasaki, Japan. The numbers of platelet positive elements present in the brain were quantitated. For each tissue section, 6 representative fields were chosen and the average number of positive elements was calculated and expressed as number of discrete elements per mm^2.

B1: LT-α: rat-recombinant lymphotoxin-α microinjected into the striatum (protein, UniProt Q06332 34-202, looked up)
Lymphotoxin-alpha: LSGVRFSASRTAHQPPQKHLTHGLLKPAAHLVGYPSKQNSLLWRANTDRAFLRHGFSLNNNSLLIPTSGLYFVYSQVVFSGESCSPRAIPTPIYLAHEVQLFSSQYPFHVPLLSAQKSVYPGLQGPWVRSMYQGAVFLLSKGDQLSTHTDGISHLHFSPSTVFFGAFAL
- number of platelet positive elements: did not increase

B2: IL-1β: rat-recombinant interleukin-1β microinjected into the striatum (protein, UniProt Q63264 117-268, looked up)
Interleukin-1 beta: VPIRQLHCRLRDEQQKCLVLSDPCELKALHLNGQNISQQVVFSMSFVQGETSNDKIPVALGLKGLNLYLSCVMKDGTPTLQLESVDPKQYPKKKMEKRFVFNKIEVKTKVEFESAQFPNWYISTSQAEHRPVFLGNSNGRDIVDFTMEPVSS
- number of platelet positive elements: did not increase

— patent US20090317330A2, “DIAGNOSIS AND TREATMENT OF DISEASES INVOLVING PLATELET ACTIVATION” (Baker IDI Heart and Diabetes Institute Holdings Limited, priority 2007, published 2009)
